Data as given in paper PMC3518626 (Current biology : CB, 2012).

Target: the molecule itself

B1: Kip2-EGFP (natural protein, yeast, UniProt P28743 1-706, looked up)
chain: MIQKMSPSLRRPSTRSSSGSSNIPQSPSVRSTSSFSNLTRNSIRSTSNSGSQSISASSTRSNSPLRSVSAKSDPFLHPGRIRIRRSDSINNNSRKNDTYTGSITVTIRPKPRSVGTSRDHVGLKSPRYSQPRSNSHHGSNTFVRDPWFITNDKTIVHEEIGEFKFDHVFASHCTNLEVYERTSKPMIDKLLMGFNATIFAYGMTGSGKTFTMSGNEQELGLIPLSVSYLFTNIMEQSMNGDKKFDVIISYLEIYNERIYDLLESGLEESGSRISTPSRLYMSKSNSNGLGVELKIRDDSQYGVKVIGLTERRCESSEELLRWIAVGDKSRKIGETDYNARSSRSHAIVLIRLTSTNVKNGTSRSSTLSLCDLAGSERATGQQERRKEGSFINKSLLALGTVISKLSADKMNSVGSNIPSPSASGSSSSSGNATNNGTSPSNHIPYRDSKLTRLLQPALSGDSIVTTICTVDTRNDAAAETMNTLRFASRAKNVALHVSKKSIISNGNNDGDKDRTIELLRRQLEEQRRMISELKNRSNIGEPLTKSSNESTYKDIKATGNDGDPNLALMRAENRVLKYKLENCEKLLDKDVVDLQDSEIMEIVEMLPFEVGTLLETKFQGLESQIRQYRKYTQKLEDKIMALEKSGHTAMSLTGCDGTEVIELQKMLERKDKMIEALQSAKRLRDRALKPLINTQQSPHPVVDNDK
- stoichiometry N: 2
